How the values were obtained:
[1] = biological target: HLA-B*15:01; assay: IEDB peptide-MHC binding, purified MHC/direct/fluorescence; filed as Kd, often an IC50 or EC50 that approximates it; ≥ and ≤ were set here for values at or beyond the usual limits of such assays
[2] = biological target: HLA-B*57:01; assay: as above
[3] = biological target: HLA-B*08:02; assay: as above
[4] = biological target: HLA-B*07:02; assay: as above
[5] = biological target: HLA-B*44:02; assay: as above; conditions: source organism: Yellow fever virus strain Ghana/Asibi/1927
[6] = biological target: HLA-B*48:01; assay: as above
[7] = biological target: HLA-B*46:01; assay: as above
[8] = biological target: HLA-A*31:01; assay: as above
[9] = biological target: HLA-B*27:05; assay: as above
[10] = biological target: HLA-C*15:02; assay: as above
[11] = biological target: HLA-A*01:01; assay: as above
[12] = biological target: HLA-B*58:01; assay: as above
[13] = biological target: HLA-B*40:01; assay: as above; conditions: source organism: Entamoeba histolytica
[14] = biological target: HLA-A*03:01; assay: as above; conditions: source organism: Entamoeba histolytica
[15] = biological target: HLA-B*18:01; assay: as above
[16] = biological target: HLA-A*68:02; assay: as above; conditions: source organism: Entamoeba histolytica
[17] = biological target: HLA-A*26:02; assay: as above
[18] = biological target: HLA-A*11:01; assay: as above; conditions: source organism: Entamoeba histolytica
[19] = biological target: HLA-B*08:01; assay: as above
[20] = biological target: HLA-B*15:17; assay: as above; conditions: source organism: Entamoeba histolytica
[21] = biological target: HLA-A*02:01; assay: as above; conditions: source organism: Entamoeba histolytica
[22] = biological target: HLA-A*26:01; assay: as above
[23] = biological target: HLA-B*46:01; assay: IEDB peptide-MHC binding, purified MHC/competitive/fluorescence; filed as Kd, often an IC50 or EC50 that approximates it; ≥ and ≤ were set here for values at or beyond the usual limits of such assays
[24] = biological target: HLA-B*15:01; assay: as above
[25] = biological target: HLA-B*51:01; assay: as above
[26] = biological target: HLA-A*02:01; assay: as above
[27] = biological target: HLA-B*39:01; assay: as above
[28] = biological target: HLA-B*35:01; assay: as above; conditions: source organism: Yersinia pestis Nepal516
[29] = biological target: HLA-C*05:01; assay: IEDB peptide-MHC binding, purified MHC/direct/fluorescence; filed as Kd, often an IC50 or EC50 that approximates it; ≥ and ≤ were set here for values at or beyond the usual limits of such assays; conditions: source organism: Yersinia pestis Nepal516
[30] = biological target: HLA-C*03:03; assay: as above
[31] = biological target: HLA-C*07:02; assay: as above
[32] = biological target: HLA-C*12:03; assay: as above; conditions: source organism: Yersinia pestis Nepal516
[33] = biological target: HLA-A*29:02; assay: IEDB peptide-MHC binding, purified MHC/competitive/fluorescence; filed as Kd, often an IC50 or EC50 that approximates it; ≥ and ≤ were set here for values at or beyond the usual limits of such assays; conditions: source organism: Vibrio parahaemolyticus RIMD 2210633
[34] = biological target: HLA-B*57:01; assay: as above; conditions: source organism: Vibrio parahaemolyticus RIMD 2210633
[35] = biological target: HLA-A*02:19; assay: as above; conditions: source organism: Vibrio parahaemolyticus RIMD 2210633
[36] = biological target: HLA-A*03:01; assay: as above; conditions: source organism: Vibrio parahaemolyticus RIMD 2210633
[37] = biological target: HLA-B*18:01; assay: as above; conditions: source organism: Vibrio parahaemolyticus RIMD 2210633
[38] = biological target: HLA-A*02:03; assay: as above; conditions: source organism: Vibrio parahaemolyticus RIMD 2210633
[39] = biological target: HLA-A*68:02; assay: as above; conditions: source organism: Vibrio parahaemolyticus RIMD 2210633
[40] = biological target: HLA-B*27:03; assay: as above; conditions: source organism: Vibrio parahaemolyticus RIMD 2210633
[41] = biological target: HLA-A*02:12; assay: as above; conditions: source organism: Vibrio parahaemolyticus RIMD 2210633
[42] = biological target: HLA-A*26:01; assay: as above; conditions: source organism: Vibrio parahaemolyticus RIMD 2210633
[43] = biological target: HLA-B*08:01; assay: as above; conditions: source organism: Salmonella enterica subsp. enterica serovar Typhi
[44] = biological target: HLA-A*11:01; assay: as above
[45] = biological target: HLA-C*14:02; assay: IEDB peptide-MHC binding, purified MHC/direct/fluorescence; filed as Kd, often an IC50 or EC50 that approximates it; ≥ and ≤ were set here for values at or beyond the usual limits of such assays; conditions: source organism: Burkholderia mallei SAVP1
[46] = source organism: Yellow fever virus strain Ghana/Asibi/1927
[47] = source organism: Yellow fever virus
[48] = source organism: Entamoeba histolytica
[49] = source organism: Yersinia pestis Nepal516
[50] = source organism: Vibrio parahaemolyticus RIMD 2210633
[51] = source organism: Salmonella enterica subsp. enterica serovar Typhi
[52] = source organism: Chelativorans sp. BNC1

Question: Which results are given for AIHPFALLL?
Answer: Kd [1, 46]: ≥ 20 µM; Kd [2, 46]: ≥ 20 µM; Kd [3, 47]: ≥ 20 µM; Kd [4, 46]: ≥ 20 µM; Kd [5]: ≥ 20 µM; Kd [6, 46]: ≥ 20 µM; Kd [7, 46]: ≥ 20 µM; Kd [8, 46]: ≥ 20 µM; Kd [9, 46]: ≥ 20 µM; Kd [10, 47]: 0.099 µM; Kd [11, 46]: ≥ 20 µM

Question: DFGYATMAK was tested. Which Kd [1, 48] did it give?
Answer: Its Kd is at least 20 µM.

Question: And the Kd [2, 48]?
Answer: The Kd was at least 20 µM.

Question: What about the Kd [12, 48] of the same sequence?
Answer: The Kd was at least 20 µM.

Question: And the Kd [3, 48]?
Answer: The Kd was at least 20 µM.

Question: And the Kd [13]?
Answer: Its Kd is at least 20 µM.

Question: What about the Kd [14] of the same sequence?
Answer: The Kd was 1.6 µM.

Question: And the Kd [4, 48]?
Answer: Its Kd is at least 20 µM.

Question: What about the Kd [15, 48] of the same sequence?
Answer: The Kd was at least 20 µM.

Question: And the Kd [16]?
Answer: The Kd was at least 20 µM.

Question: And the Kd [17, 48]?
Answer: Its Kd is at least 20 µM.

Question: And the Kd [6, 48]?
Answer: The Kd was at least 20 µM.

Question: And the Kd [7, 48]?
Answer: The Kd was at least 20 µM.

Question: What about the Kd [18] of the same sequence?
Answer: The Kd was 0.836 µM.

Question: And the Kd [19, 48]?
Answer: Its Kd is at least 20 µM.

Question: What about the Kd [20] of the same sequence?
Answer: The Kd was at least 20 µM.

Question: And the Kd [8, 48]?
Answer: Its Kd is at least 20 µM.

Question: And the Kd [21]?
Answer: Its Kd is at least 20 µM.

Question: And the Kd [22, 48]?
Answer: Its Kd is at least 20 µM.

Question: And the Kd [9, 48]?
Answer: Its Kd is at least 20 µM.

Question: And the Kd [11, 48]?
Answer: Its Kd is at least 20 µM.

Question: How did the Kd [23, 47] turn out when EAMDTISVF was run?
Answer: Its Kd is 0.53 µM.

Question: And the Kd [17, 47]?
Answer: The Kd was at most 0.001 µM.

Question: For ETLETLLLL, which Kd ([17]; source organism: Dengue virus 2 Thailand/16681/84) is on record?
Answer: The Kd was 0.055 µM.

Question: With FAFKLSFAI as the sequence, how does the Kd [24, 49] read?
Answer: Its Kd is at least 20 µM.

Question: And the Kd [25, 49]?
Answer: The Kd was at least 20 µM.

Question: And the Kd [26, 49]?
Answer: Its Kd is 1.01 µM.

Question: And the Kd [27, 49]?
Answer: Its Kd is 3 µM.

Question: What about the Kd [28] of the same sequence?
Answer: Its Kd is 0.065 µM.

Question: And the Kd [29]?
Answer: Its Kd is at least 20 µM.

Question: And the Kd [30, 49]?
Answer: Its Kd is 0.004 µM.

Question: What about the Kd [31, 49] of the same sequence?
Answer: Its Kd is at least 20 µM.

Question: What about the Kd [32] of the same sequence?
Answer: The Kd was at most 0.001 µM.

Question: How did the Kd ([19]; source organism: Vibrio cholerae V52) turn out when FIRWRFYLL was run?
Answer: The Kd was 0.216 µM.

Question: What about the Kd ([31]; source organism: Vibrio cholerae 2740-80) of the same sequence?
Answer: Its Kd is 4.08 µM.

Question: How did the Kd [33] turn out when HVIYFTAFT was run?
Answer: Its Kd is at least 20 µM.

Question: And the Kd [24, 50]?
Answer: Its Kd is at least 20 µM.

Question: And the Kd [34]?
Answer: The Kd was at least 20 µM.

Question: And the Kd [25, 50]?
Answer: Its Kd is at least 20 µM.

Question: And the Kd [35]?
Answer: Its Kd is at least 20 µM.

Question: What about the Kd [36] of the same sequence?
Answer: The Kd was at least 20 µM.

Question: And the Kd [37]?
Answer: The Kd was at least 20 µM.

Question: What about the Kd [38] of the same sequence?
Answer: The Kd was at least 20 µM.

Question: What about the Kd [39] of the same sequence?
Answer: The Kd was 0.0577 µM.

Question: And the Kd [23, 50]?
Answer: The Kd was at least 20 µM.

Question: What about the Kd [40] of the same sequence?
Answer: The Kd was at least 20 µM.

Question: And the Kd [41]?
Answer: The Kd was at least 20 µM.

Question: What about the Kd [26, 50] of the same sequence?
Answer: Its Kd is at least 20 µM.

Question: And the Kd [42]?
Answer: Its Kd is at least 20 µM.

Question: And the Kd [27, 50]?
Answer: Its Kd is at least 20 µM.

Question: Which Kd [43] does the source give for MMLSPLVAL here?
Answer: Its Kd is 0.96 µM.

Question: What about the Kd [26, 51] of the same sequence?
Answer: The Kd was 0.0002 µM.

Question: What about the Kd [27, 51] of the same sequence?
Answer: The Kd was 0.0008 µM.

Question: And the Kd ([31]; source organism: Salmonella enterica subsp. enterica serovar Typhi str. CT18)?
Answer: Its Kd is 0.858 µM.

Question: How did the Kd [44, 49] turn out when RTLASGLIY was run?
Answer: The Kd was 0.0673 µM.

Question: Which results are given for SGIDTNAYY?
Answer: Kd ([17]; source organism: West Nile virus strain PTRoxo): ≥ 20 µM; Kd ([22]; source organism: West Nile virus): ≥ 20 µM

Question: TLYCVHQR was tested. Which Kd ([44]; source organism: Human immunodeficiency virus 1) did it give?
Answer: The Kd was 0.111 µM.

Question: What does the source list for WALDVPMYF?
Answer: Kd ([2]; source organism: Brucella suis 1330): 0.034 µM; Kd ([12]; source organism: Aurantimonas manganoxydans): 0.0036 µM; Kd [30, 52]: ≤ 0.001 µM; Kd [10, 52]: 0.179 µM

Question: WWLEYTASF was tested. Which Kd ([15]; source organism: Burkholderia mallei ATCC 23344) did it give?
Answer: The Kd was 0.068 µM.

Question: And the Kd [45]?
Answer: The Kd was 0.077 µM.

Question: And the Kd ([10]; source organism: Burkholderia mallei SAVP1)?
Answer: The Kd was at least 20 µM.
